# According to patent publication US20250353906A1 (FLAGSHIP PIONEERING INNOVATIONS VII, published 2025):
# Where a chain is given by its changes, count along the chain named. Names may count otherwise.
# B1: IL-10 Fc (Creative Biomart IL10-326H) (Fc fusion, human, UniProt P22301 19-178, looked up)
# chain: SPGQGTQSENSCTHFPGNLPNMLRDLRDAFSRVKTFFQMKDQLDNLLLKESLLEDFKGYLGCQALSEMIQFYLEEVMPQAENQDPDIKAHVNSLGENLKTLRLRLRRCHRFLPCENKSKAVEQVKNAFNKLQEKGIYKAMSEFDIFINYIEAYMTMKIRN
# notes: Bought reagent; also called positive control IL-10 Fc; hIL-10 Fc fusion; not shown: human Fc domain
# B2: PRO052 (bispecific antibody)
# heavy 1: not shown
# light 1: DIQMTQSPSSLSASVGDRVTITCRASQSNRRFLAWYQQKPGKAPKLLIYGASSRASGVPSRFSGSGSGTDFTLTISSLQPEDFATYYCQQYYISPLTFGQGTKVEIKRTVAAPSVFIFPPSDEQLKSGTASVVCLLNNFYPREAKVQWKVDNALQSGNSQESVTEQDSKDSTYSLSSTLTLSKADYEKHKVYACEVTHQGLSSPVTKSFNRGEC
# heavy 2: not shown
# light 2: DIQMTQSPSSLSASVGDRVTITCRASQDVGIYVNWFQQKPGKAPRRLIYRATNLADGVPSRFSGSRSGTDFTLTISSLQPEDFATYYCLEFDEHPLTFGGGTKVEIKRTVAAPSVFIFPPSDEQLKSGTASVVCLLNNFYPREAKVQWKVDNALQSGNSQESVTEQDSKDSTYSLSSTLTLSKADYEKHKVYACEVTHQGLSSPVTKSFNRGEC
# notes: Made by controlled Fab arm exchange from PRO035 (K409R) and PRO002 (F405L); also called Notch2/RAGE ANDbody PRO052; copies: 1 + 1 + 1 + 1
# B3: PRO051 (bispecific antibody)
# heavy 1: not shown
# light 1: not shown
# heavy 2: not shown
# light 2: B2 light 2
# notes: Made by controlled Fab arm exchange from PRO034 (K409R) and PRO002 (F405L); Signal peptides left out as for the parents; also called Notch2/RAGE ANDbody PRO051; RAGE-targeting ANDbody; copies: 1 + 1 + 1 + 1
# B4: PRO053 (bispecific antibody)
# heavy 1: not shown
# light 1: B2 light 1 with N29V, R31S, G50R, S53I, L96W
# heavy 2: not shown
# light 2: B2 light 2
# notes: Made by controlled Fab arm exchange from PRO036 (K409R) and PRO002 (F405L); also called Notch2/RAGE ANDbody PRO053; copies: 1 + 1 + 1 + 1
# B5: PRO058 (other)
# heavy: EVQLVESGGGLVQPGRSLRLSCAASGFTFDDYAMHWVRQAPGKGLEWVSGISWNSGSIDYADSVKGRFTISRDNAKNSLYLQMNSLRVEDTALYYCAKDGSRVFGVGGGFDFWGQGTMVTVSSASTKGPSVFPLAPSSKSTSGGTAALGCLVKDYFPEPVTVSWNSGALTSGVHTFPAVLQSSGLYSLSSVVTVPSSSLGTQTYICNVNHKPSNTKVDKKVEPKSCDKTHTCPPCPAPEAAGGPSVFLFPPKPKDTLMISRTPEVTCVVVDVSHEDPEVKFNWYVDGVEVHNAKTKPREEQYNSTYRVVSVLTVLHQDWLNGKEYKCKVSNKALGAPIEKTISKAKGQPREPQVYTLPPSRDELTKNQVKLTCLVKGFYPSDIAVEWESNGQPENNYKTTPPVLDSDGSFFLYSSLTVDKSRWQQGNVFSCSVMHEALHNHYTQKSLSLSPG
# light: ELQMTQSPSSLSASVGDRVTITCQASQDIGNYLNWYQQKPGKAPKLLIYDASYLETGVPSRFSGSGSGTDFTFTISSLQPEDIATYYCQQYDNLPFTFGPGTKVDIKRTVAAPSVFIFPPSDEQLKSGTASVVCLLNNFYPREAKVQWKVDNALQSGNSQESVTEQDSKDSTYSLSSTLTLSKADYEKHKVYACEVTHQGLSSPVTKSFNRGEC
# chain: SPGQGTQSENSCTHFPGNLPNMLRDLRDAFSRVKTFFQMKDQLDNLLLKESLLEDFKGYLGCQALSEMIQFYLEEVMPQAENQDPDIKAHVNSLGENLKTLRLRLRRCHRFLPCENGGGSGGKSKAVEQVKNAFNKLQEKGIYKAMSEFDIFINYIEAYMTMKIRNGGGGSGGGGSDKTHTCPPCPAPEAAGGPSVFLFPPKPKDTLMISRTPEVTCVVVDVSHEDPEVKFNWYVDGVEVHNAKTKPREEQYNSTYRVVSVLTVLHQDWLNGKEYKCKVSNKALGAPIEKTISKAKGQPREPQVYTLPPSRDELTKNQVSLTCLVSGFYPSDIAVEWESNGQPENNYKTTPPVLDSDGSFKLYSKLTVDKSRWQQGNVFSCSVMHEALHNRFTQKSLSLSPG
# What was measured:
# [1] = target: T1, recombinant His-tagged human IL-10Ra (Creative Biomart) (human, UniProt Q13651 22-235); assay: ELISA on coated His-tagged human IL-10Ra, serial dilution from 30 µg/mL
# T1 construct: His tag; also called IL-10 receptor alpha
# T1 sequence (looked up): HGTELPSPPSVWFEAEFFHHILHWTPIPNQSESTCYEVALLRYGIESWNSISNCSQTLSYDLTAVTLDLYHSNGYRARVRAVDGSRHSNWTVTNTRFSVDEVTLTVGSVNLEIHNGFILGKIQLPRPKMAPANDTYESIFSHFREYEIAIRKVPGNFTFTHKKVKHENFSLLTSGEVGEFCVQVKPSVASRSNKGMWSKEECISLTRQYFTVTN
# Method: To test the binding of the IL-10/anti-DSG1 ANDbodies to IL-10 receptor alpha (IL-10Ra) by ELISA, recombinant His-tagged human IL-10Ra (Creative Biomart) was coated on NUNC-IMMUNO™ MAXISORP™ ELISA plates at 1 μg/mL concentration overnight. The next day, coated antigen was removed and the wells were blocked with 1% IgG-free BSA followed by incubation with 11 three-fold serially diluted anti-IL-10/anti-DSG1 ANDbodies (as provided above) with a starting concentration of 30 μg/mL. Bound antibody was detected with peroxidase-conjugated anti-human IgG antibodies with TMB and acid stop reagents.
# [2] = target: T2, recombinant His-tagged murine RAGE protein (ab276858 from Abcam) (mouse, UniProt Q62151 23-340, limits assumed); assay: BLI, ANDbody on anti-human IgG Fc biosensors, murine RAGE at 150 nM then murine Notch2 NRR at 150 nM
# T2 construct: His tag; also called murine RAGE antigen
# T2 sequence (Q62151 23-340 limits assumed): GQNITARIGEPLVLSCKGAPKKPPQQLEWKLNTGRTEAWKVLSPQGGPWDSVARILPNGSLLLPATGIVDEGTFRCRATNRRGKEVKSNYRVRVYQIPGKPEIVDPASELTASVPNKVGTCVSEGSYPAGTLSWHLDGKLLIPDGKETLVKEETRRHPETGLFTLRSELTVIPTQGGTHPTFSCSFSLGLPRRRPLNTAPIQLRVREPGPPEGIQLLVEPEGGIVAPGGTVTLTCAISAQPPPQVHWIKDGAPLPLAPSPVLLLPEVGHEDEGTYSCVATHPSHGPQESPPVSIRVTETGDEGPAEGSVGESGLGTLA
# Method: To test simultaneous dual antigen binding of the Notch2/RAGE ANDbodies by BLI, PRO051, PRO052 and PRO053, along with monovalent parental antibody controls were immobilized on anti-human IgG Fc biosensors and dipped into the recombinant His-tagged murine RAGE protein at 150 nM, followed by a second association step into wells containing recombinant murine Notch2 NRR at 150 nM to measure dual antigen binding. The dissociation rate was then measured by dipping the biosensors into buffer.
# [3] = target: T3, DSG1 stably expressed on HEK-BLUE IL-10 cells (HEKBLUE IL-10/DSG1) (human, UniProt Q02413 50-1049); assay: cell-based or functional assay
# T3 sequence (looked up): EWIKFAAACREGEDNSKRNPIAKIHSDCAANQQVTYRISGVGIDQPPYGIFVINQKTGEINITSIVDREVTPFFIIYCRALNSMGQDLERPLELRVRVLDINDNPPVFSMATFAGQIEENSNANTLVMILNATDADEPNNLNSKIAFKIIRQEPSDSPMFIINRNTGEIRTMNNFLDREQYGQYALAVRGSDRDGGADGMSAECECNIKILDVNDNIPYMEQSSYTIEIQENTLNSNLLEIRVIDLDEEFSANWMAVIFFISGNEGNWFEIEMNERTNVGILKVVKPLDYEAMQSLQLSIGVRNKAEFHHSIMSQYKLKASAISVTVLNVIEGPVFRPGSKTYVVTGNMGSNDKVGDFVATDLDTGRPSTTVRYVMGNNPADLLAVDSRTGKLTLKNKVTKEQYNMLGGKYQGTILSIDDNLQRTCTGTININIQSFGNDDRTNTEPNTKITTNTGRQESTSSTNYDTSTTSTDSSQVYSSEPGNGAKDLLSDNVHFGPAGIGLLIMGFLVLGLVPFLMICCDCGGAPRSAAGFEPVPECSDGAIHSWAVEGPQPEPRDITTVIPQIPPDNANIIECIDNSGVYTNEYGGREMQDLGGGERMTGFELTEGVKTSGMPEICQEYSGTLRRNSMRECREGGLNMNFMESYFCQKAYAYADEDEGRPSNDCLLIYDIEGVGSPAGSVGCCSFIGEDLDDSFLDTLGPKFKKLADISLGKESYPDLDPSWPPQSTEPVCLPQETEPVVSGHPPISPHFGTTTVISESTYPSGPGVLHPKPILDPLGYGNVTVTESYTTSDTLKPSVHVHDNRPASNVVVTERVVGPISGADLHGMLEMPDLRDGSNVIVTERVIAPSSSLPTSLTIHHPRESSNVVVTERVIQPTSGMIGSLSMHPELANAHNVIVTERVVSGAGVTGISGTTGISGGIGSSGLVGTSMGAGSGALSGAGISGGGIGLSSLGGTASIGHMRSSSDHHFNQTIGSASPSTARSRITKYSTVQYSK
Binder,binding result [2],other results
B1,,binding result [1]: binds
B2,binds,
B3,binds,
B4,binds,
B5,,"increase in potency of IL-10 signaling (SEAP, HEK-BLUE IL-10 cells) when DSG1 was expressed on the target cells [3]: ~15 fold"
